In the FLAb antibody collection (doi:10.7554/elife.23156):

B1: scFv; the commonest letter at each place (parent)
chain 1: EVKLDETGGGLVQPGRPMKLSCVASGFTFSDYWMNWVRQSPEKGLEWVAQIRNKPYNYETYYSDSVKGRFTISRDDSKSSVYLQMNNLRVEDMGIYYCTGSYYGMDYWGQGTSVTVS
chain 2: DVVMTQTPLSLPVSLGDQASISCRSSQSLVHSNGNTYLRWYLQKPGQSPKVLIYKVSNRFSGVPDRFSGSGSGTDFTLKISRVEAEDLGVYFCSQSTHVPWTFGGGTKLEIK

How the values were obtained:
[1] = variants of: B1; experiment: Kd (Tite-Seq); conditions: with fluorescein; format: scFv 4-4-20, heavy + light
[2] = variants of: B1; experiment: yeast surface expression (ratio to wild type); higher = more expressed; conditions: format: scFv 4-4-20, heavy + light

Row | Kd [1] [nM] | Variant | yeast surface expression [2]
1 | 6960 | chain 1 EVKLDETGGGLVQPGRPMKLSCVASGFKFSDYWKNWVRQSPEKGLEWVAQIRNKPYNYETYYSDSVKGRFTISRDDSKSSVYLQMNNLRVEDMGIYYCTGSYYGMDYWGQGTSVTVS chain 2 DVVMTQTPLSLPVSLGDQASISCRSSQSLVHSNGNTYLRWYLQKPGQSPKVLIYKVSNRFSGVPDRFSGSGSGTDFTLKISRVEAEDLGVYFCSQSTHVPWTFGGGTKLEIK [chain 1 T28K M34K] | 0.284
2 | 1.22 | chain 1 EVKLDETGGGLVQPGRPMKLSCVASGFKFSDYWVNWVRQSPEKGLEWVAQIRNKPYNYETYYSDSVKGRFTISRDDSKSSVYLQMNNLRVEDMGIYYCTGSYYGMDYWGQGTSVTVS chain 2 DVVMTQTPLSLPVSLGDQASISCRSSQSLVHSNGNTYLRWYLQKPGQSPKVLIYKVSNRFSGVPDRFSGSGSGTDFTLKISRVEAEDLGVYFCSQSTHVPWTFGGGTKLEIK [chain 1 T28K M34V] | 0.867
3 | ≥ 10000 | chain 1 EVKLDETGGGLVQPGRPMKLSCVASGFKFSDYDMNWVRQSPEKGLEWVAQIRNKPYNYETYYSDSVKGRFTISRDDSKSSVYLQMNNLRVEDMGIYYCTGSYYGMDYWGQGTSVTVS chain 2 DVVMTQTPLSLPVSLGDQASISCRSSQSLVHSNGNTYLRWYLQKPGQSPKVLIYKVSNRFSGVPDRFSGSGSGTDFTLKISRVEAEDLGVYFCSQSTHVPWTFGGGTKLEIK [chain 1 T28K W33D] | 0.981
4 | ≥ 10000 | chain 1 EVKLDETGGGLVQPGRPMKLSCVASGFKFSDYWMMWLRQSPEKGLEWVAQIRNKPYNYETYYSDSVKGRFTISRDDSKSSVYLQMNNLRVEDMGIYYCTGSYYGMDYWGQGTSVTVS chain 2 DVVMTQTPLSLPVSLGDQASISCRSSQSLVHSNGNTYLRWYLQKPGQSPKVLIYKVSNRFSGVPDRFSGSGSGTDFTLKISRVEAEDLGVYFCSQSTHVPWTFGGGTKLEIK [chain 1 T28K N35M V37L] | 0.642
5 | 37.2 | chain 1 EVKLDETGGGLVQPGRPMKLSCVASGFKCSDYWMNWVRQSPEKGLEWVAQIRNKPYNYETYYSDSVKGRFTISRDDSKSSVYLQMNNLRVEDMGIYYCTGSYYGMDYWGQGTSVTVS chain 2 DVVMTQTPLSLPVSLGDQASISCRSSQSLVHSNGNTYLRWYLQKPGQSPKVLIYKVSNRFSGVPDRFSGSGSGTDFTLKISRVEAEDLGVYFCSQSTHVPWTFGGGTKLEIK [chain 1 T28K F29C] | 0.906
6 | 0.504 | chain 1 EVKLDETGGGLVQPGRPMKLSCVASGFKYSDYWMNWVRQSPEKGLEWVAQIRNKPYNYETYYSDSVKGRFTISRDDSKSSVYLQMNNLRVEDMGIYYCTGSYYGMDYWGQGTSVTVS chain 2 DVVMTQTPLSLPVSLGDQASISCRSSQSLVHSNGNTYLRWYLQKPGQSPKVLIYKVSNRFSGVPDRFSGSGSGTDFTLKISRVEAEDLGVYFCSQSTHVPWTFGGGTKLEIK [chain 1 T28K F29Y] | 0.984
7 | 5.75 | chain 1 EVKLDETGGGLVQPGRPMKLSCVASGFKFKDYWYNWVRQSPEKGLEWVAQIRNKPYNYETYYSDSVKGRFTISRDDSKSSVYLQMNNLRVEDMGIYYCTGSYYGMDYWGQGTSVTVS chain 2 DVVMTQTPLSLPVSLGDQASISCRSSQSLVHSNGNTYLRWYLQKPGQSPKVLIYKVSNRFSGVPDRFSGSGSGTDFTLKISRVEAEDLGVYFCSQSTHVPWTFGGGTKLEIK [chain 1 T28K S30K M34Y] | 0.855
8 | 195 | chain 1 EVKLDETGGGLVQPGRPMKLSCVASGFKFSDYWMNWRRQSPEKGLEWVAQIRNKPYNYETYYSDSVKGRFTISRDDSKSSVYLQMNNLRVEDMGIYYCTGSYYGMDYWGQGTSVTVS chain 2 DVVMTQTPLSLPVSLGDQASISCRSSQSLVHSNGNTYLRWYLQKPGQSPKVLIYKVSNRFSGVPDRFSGSGSGTDFTLKISRVEAEDLGVYFCSQSTHVPWTFGGGTKLEIK [chain 1 T28K V37R] | 2.19
9 | 143 | chain 1 EVKLDETGGGLVQPGRPMKLSCVASGFKFSDYWMNWLRQSPEKGLEWVAQIRNKPYNYETYYSDSVKGRFTISRDDSKSSVYLQMNNLRVEDMGIYYCTGSYYGMDYWGQGTSVTVS chain 2 DVVMTQTPLSLPVSLGDQASISCRSSQSLVHSNGNTYLRWYLQKPGQSPKVLIYKVSNRFSGVPDRFSGSGSGTDFTLKISRVEAEDLGVYFCSQSTHVPWTFGGGTKLEIK [chain 1 T28K V37L] | 1.01
10 | ≥ 10000 | chain 1 EVKLDETGGGLVQPGRPMKLSCVASGFKFSIYWMNWVRQSPEKGLEWVAQIRNKPYNYETYYSDSVKGRFTISRDDSKSSVYLQMNNLRVEDMGIYYCTGSYYGMDYWGQGTSVTVS chain 2 DVVMTQTPLSLPVSLGDQASISCRSSQSLVHSNGNTYLRWYLQKPGQSPKVLIYKVSNRFSGVPDRFSGSGSGTDFTLKISRVEAEDLGVYFCSQSTHVPWTFGGGTKLEIK [chain 1 T28K D31I] | 0.645
11 | 1.35 | chain 1 EVKLDETGGGLVQPGRPMKLSCVASGFKFIDYWMNWVRQSPEKGLEWVAQIRNKPYNYETYYSDSVKGRFTISRDDSKSSVYLQMNNLRVEDMGIYYCTGSYYGMDYWGQGTSVTVS chain 2 DVVMTQTPLSLPVSLGDQASISCRSSQSLVHSNGNTYLRWYLQKPGQSPKVLIYKVSNRFSGVPDRFSGSGSGTDFTLKISRVEAEDLGVYFCSQSTHVPWTFGGGTKLEIK [chain 1 T28K S30I] | 0.889
12 | 1.42 | chain 1 EVKLDETGGGLVQPGRPMKLSCVASGFKFHDYWMNWVRQSPEKGLEWVAQIRNKPYNYETYYSDSVKGRFTISRDDSKSSVYLQMNNLRVEDMGIYYCTGSYYGMDYWGQGTSVTVS chain 2 DVVMTQTPLSLPVSLGDQASISCRSSQSLVHSNGNTYLRWYLQKPGQSPKVLIYKVSNRFSGVPDRFSGSGSGTDFTLKISRVEAEDLGVYFCSQSTHVPWTFGGGTKLEIK [chain 1 T28K S30H] | 0.814
